According to article PMC4429025, “Characterization of Mutants of Human Small Heat Shock Protein HspB1 Carrying Replacements in the N-Terminal Domain and Associated with Hereditary Motor Neuron Diseases” (PLoS ONE, 2015):

Legend:
Assay in all cases: cross-linking; disulfide crosslinking: reduced proteins alone or mixed at 30 uM per monomer each, 1 h at 42°C, then dialysis against 50 mM Tris/HCl pH 7.4, 50 mM KCl, 1 mM MgCl2, 0.1 mM PMSF at 4, 15 or 37°C; non-reducing SDS PAGE
Conditions in all cases: both partners purified
[1] = biological target: T1, wild type HspB1 (human small heat shock protein HspB1) (human, UniProt P04792 1-205)
T1 construct: human small heat shock protein HspB1, wild type, cDNA in pET23b; also called WT HspB1; WT; source: E. coli BL21 (DE3) pLysS, purified (ammonium sulfate fractionation, HiTrap Q, Superdex 200)
T1 sequence (P04792 whole entry): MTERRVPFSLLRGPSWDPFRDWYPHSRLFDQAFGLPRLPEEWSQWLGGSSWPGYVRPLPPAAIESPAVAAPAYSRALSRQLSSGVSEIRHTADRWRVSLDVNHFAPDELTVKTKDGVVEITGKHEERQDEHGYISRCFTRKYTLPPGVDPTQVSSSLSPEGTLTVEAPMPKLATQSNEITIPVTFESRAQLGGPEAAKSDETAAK

G34R mutant of HspB1 = biological target: T2, G34R mutant of HspB1 (human, UniProt P04792 1-205, G34R)
T2 construct: human HspB1 with the disease-associated replacement G34R, in pET23b (NdeI/XhoI); Mutation occurs in patients with distal hereditary motor neuropathy; source: E. coli BL21 (DE3) pLysS, purified (ammonium sulfate fractionation, HiTrap Q, Superdex 200)
T2 sequence (P04792 whole entry G34R): as the sequence (P04792 whole entry) above, with G34R counted along it

P39L mutant of HspB1 = biological target: T3, P39L mutant of HspB1 (human, UniProt P04792 1-205, P39L)
T3 construct: human HspB1 with the disease-associated replacement P39L, in pET23b (NdeI/XhoI); Mutation occurs in patients with type II Charcot-Marie-Tooth disease or dHMN; source: E. coli BL21 (DE3) pLysS, purified (ammonium sulfate fractionation, HiTrap Q, Superdex 200)
T3 sequence (P04792 whole entry P39L): as the sequence (P04792 whole entry) above, with P39L counted along it

E41K mutant of HspB1 = biological target: T4, E41K mutant of HspB1 (human, UniProt P04792 1-205, E41K)
T4 construct: human HspB1 with the disease-associated replacement E41K, in pET23b (NdeI/XhoI); Mutation occurs in patients with distal hereditary motor neuropathy; source: E. coli BL21 (DE3) pLysS, purified (ammonium sulfate fractionation, HiTrap Q, Superdex 200)
T4 sequence (P04792 whole entry E41K): as the sequence (P04792 whole entry) above, with E41K counted along it

Measured: binding result

B1: double mutant of HspB6 containing the substitutions C46S/E116C (natural protein, human, UniProt O14558 1-160, looked up)
chain: MEIPVPVQPSWLRRASAPLPGLSAPGRLFDQRFGEGLLEAELAALSPTTLAPYYLRAPSVALPVAQVPTDPGHFSVLLDVKHFSPEEIAVKVVGEHVEVHARHEERPDEHGFVARCFHRRYRLPPGVDPAAVTSALSPEGVLSIQAAPASAQAPPPAAAK
notes: HspB6 lacking the natural Cys of the N-terminal domain and with a single Cys at the position homologous to Cys137 of HspB1; also called Cys mutant of HspB6; Cys-mutant of HspB6; source: expressed and purified as described earlier [36]
binds: all assays above
